Experimental data: publication doi:10.1101/816322 (bioRxiv, 2019)

T1: Flag-tagged Trichoplax adhaerens Bcl-2-like protein 1 (trBcl-2L1) (Trichoplax adhaerens, UniProt A0A1B1IJP0 1-215)
T1 sequence (looked up): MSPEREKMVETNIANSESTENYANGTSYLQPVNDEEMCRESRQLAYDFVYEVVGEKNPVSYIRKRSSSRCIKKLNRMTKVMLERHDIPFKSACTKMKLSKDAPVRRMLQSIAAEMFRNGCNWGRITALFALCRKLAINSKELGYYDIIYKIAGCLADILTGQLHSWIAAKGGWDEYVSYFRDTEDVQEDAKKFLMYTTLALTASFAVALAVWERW

T2: Flag-tagged Trichoplax adhaerens Bcl-2-like protein 2 (trBcl-2L2) (Trichoplax adhaerens, UniProt A0A1B1IJN9 1-211)
T2 sequence (looked up): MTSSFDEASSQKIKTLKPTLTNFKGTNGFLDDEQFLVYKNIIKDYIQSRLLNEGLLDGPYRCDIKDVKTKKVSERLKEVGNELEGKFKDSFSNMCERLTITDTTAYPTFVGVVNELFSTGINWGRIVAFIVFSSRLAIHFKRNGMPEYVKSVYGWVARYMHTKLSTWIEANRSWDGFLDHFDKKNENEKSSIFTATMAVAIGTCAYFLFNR


Key:
[1] = molecular target: T1, Flag-tagged Trichoplax adhaerens …; test: FRET or BRET
[2] = molecular target: T2, Flag-tagged Trichoplax adhaerens …; test: FRET or BRET

Row | FRET efficacy [1] [%] | FRET efficacy [2] [%] | Binder
1 | 11.2 | 5.45 | EGFP-tagged Trichoplax adhaerens Bak (trBak, trBcl-2L4) (natural protein, UniProt A0A1B1IJN7 1-251, looked up) MSSTITIAESLENGENNDEQEEANTSRSQFRVTRAQVIRRQLSANPAHLPVSEQEVINETSSIFRSFVVESYQAERDGGIIAEEVRSFADQVQSSSNQTITPSSPTSEIGRHLAQLGDSYSVRFQNEFRLMITHLDINPGTAYRTFAGVARRLFRDGISWRRIVTLMAFGYQIAIDVMRSGVQGFLSRICNFIVRFISGEHIANWIARQGGWRAARYEGLASPGWPAIIGVATAAAASVFGVLWLSGYFRE
2 | 5.84 | 1.97 | EGFP-tagged Trichoplax adhaerens Bax (trBax, trBcl-2L3) (natural protein, UniProt A0A1B1IJP1 1-241, looked up) MADFTYVLITRSISTIFSSSCLIAMAHVKSVTSTPTTTTTTTTQSCPRREENLKEIAAESKKLFLDFIADRSAKDGQDQGCISQLTREHNELQIEPTSPTIQVARTIRQIGDELDSDPHLNGLLHKLHVTSSTAYSTFRRVAMRIFQDGQFNWGRIITLFFFGYRLTIRVLSESPIVEMIISWIARFIYEICSFWIAESGGWDAITQYIQQADWKNKYTLGLIAVGVLVTAFVTWQRYNSS
